According to the supplement of paper PMC7877785:
± gives the uncertainty stated by the source.

Experiment: self-splicing fitness, log relative to wild type (ln ratio); higher = more splicing; Tetrahymena group I intron in knt gene, E. coli kanamycin selection, DiMSum; sequences stand for … in CUCUCU…GGAGGGAAAAGUUAUCAGGCAUGCACCUGGUAGCUAGUCUUUAAACCAAUAGAUUGCAUCGGUUUAAAAGGCAAGACCGUCAAAUUGCGGGAAAGGGGUCAACAGCCGUUCAGUACCAAGUCUCAGGGGAAACUUUGAGAUGGCCUUGCAAAGGGUAUGGUAAUAAGCUGACGGACAUGGUCCUAACCACGCAGCCAAGUCCUAAGUCAACAGAUCUUCUGUUGAUAUGGAUGCAGUUCACAGACUAAAUGUCGGUCGGGGAAGAUGUAUUCUUCUCAUAAGAUAUAGUCGGACCUCUCCUUAAUGGGAGCUAGCGGAUGAAGUGAUGCAACACUGGAGCCGCUGGGAACUAAUUUGUAUGCGAAAGUAUAUUGAUUAGUUUUGGAGUACUCGUGGUCG
Outline: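 A randomised library covering all eight P1ex-region intron nucleotides was built with the intron in the knt kanamycin-resistance gene on pET-22b(+) and held in E. coli BL21(DE3). Cells were grown overnight at 37°C or 30°C on LB agar, with or without 25 μg/mL kanamycin, plus 100 μg/mL carbenicillin, 50 μM IPTG and 0.2% rhamnose, and pooled colonies were amplicon-sequenced on an Illumina HiSeq 2500. DiMSum fitness is the error-weighted combination of wild-type-normalised replicate fold changes, kanamycin versus none.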

Row | Sequence | self-splicing fitness (ln) (30 °C) | self-splicing fitness (ln) (37 °C)
1 | UCCGAGCAAUAUUACGGAUA | -2.34 ± 0.25 | -2.61 ± 0.19
2 | UCCGAGCAAUAUUACGGAUC | – | -2.41 ± 0.39
3 | UCCGAGCAAUAUUACGGCGU | -1.17 ± 0.081 | -0.438 ± 0.11
4 | UCCGAGCAAUAUUACGGGCU | -4.07 ± 0.24 | -2.97 ± 0.2
5 | UCCGAGCAAUAUUACGGUAG | -3.6 ± 0.14 | -2.43 ± 0.15
6 | UCCGAGCAAUAUUACGGUUU | -3.42 ± 0.22 | -1.02 ± 0.14
7 | UCCGAGCAAUAUUACGUAAG | -4.92 ± 0.38 | -2.13 ± 0.25
8 | UCCGAGCAAUAUUACGUCAU | -3.59 ± 0.27 | -2.75 ± 0.44
9 | UCCGAGCAAUAUUACGUGAG | -2.83 ± 0.19 | -2.43 ± 0.23
10 | UCCGAGCAAUAUUACGUUGU | -2.89 ± 0.14 | -2.96 ± 0.22
11 | UCCUAGCAAUAUUACGAAUC | – | -2.17 ± 0.29
12 | UCCUAGCAAUAUUACGACCG | -3.3 ± 0.28 | -3.65 ± 0.34
13 | UCCUAGCAAUAUUACGACUU | -3.74 ± 0.46 | -2.74 ± 0.3
14 | UCCUAGCAAUAUUACGAGAA | -1.36 ± 0.25 | -0.965 ± 0.23
15 | UCCUAGCAAUAUUACGAGAC | -2.09 ± 0.33 | -1.71 ± 0.4
16 | UCCUAGCAAUAUUACGAGGU | -3.53 ± 0.19 | -1.45 ± 0.13
17 | UCCUAGCAAUAUUACGAGUC | -2.71 ± 0.31 | –
18 | UCCUAGCAAUAUUACGAUCA | -2.01 ± 0.1 | -1.36 ± 0.096
19 | UCCUAGCAAUAUUACGAUGA | 0.139 ± 0.083 | 0.437 ± 0.098
20 | UCCUAGCAAUAUUACGCAGC | – | -0.949 ± 0.4
21 | UCCUAGCAAUAUUACGCAUG | -2.52 ± 0.28 | –
22 | UCCUAGCAAUAUUACGCGAU | -3.18 ± 0.28 | -2.65 ± 0.5
23 | UCCUAGCAAUAUUACGCGCG | -4.03 ± 0.29 | -2.45 ± 0.31
24 | UCCUAGCAAUAUUACGCGUA | -2.95 ± 0.23 | -1.53 ± 0.14
25 | UCCUAGCAAUAUUACGCUGG | -3.84 ± 0.42 | -2.29 ± 0.32
26 | UCCUAGCAAUAUUACGGAGG | -2.63 ± 0.17 | -1.73 ± 0.2

Row | Sequence | self-splicing fitness (ln) (30 °C) | self-splicing fitness (ln) (37 °C)
27 | UCCUAGCAAUAUUACGGAUC | -3.39 ± 0.23 | -2.53 ± 0.26
28 | UCCUAGCAAUAUUACGGAUU | -4.22 ± 0.23 | -2.36 ± 0.21
29 | UCCUAGCAAUAUUACGGCGG | -3.94 ± 0.27 | -2.92 ± 0.2
30 | UCCUAGCAAUAUUACGGGCC | -2.79 ± 0.12 | -1.17 ± 0.11
31 | UCCUAGCAAUAUUACGGUGG | -3.31 ± 0.15 | -2.32 ± 0.13
32 | UCCUAGCAAUAUUACGUAAC | -3.53 ± 0.24 | -2.07 ± 0.27
33 | UCCUAGCAAUAUUACGUAGU | -2.62 ± 0.15 | -1.29 ± 0.18
34 | UCCUAGCAAUAUUACGUAUG | -4.13 ± 0.3 | -2.62 ± 0.26
35 | UCCUAGCAAUAUUACGUCAA | – | -1.52 ± 0.39
36 | UCCUAGCAAUAUUACGUCGC | -4.08 ± 0.42 | -2.58 ± 0.36
37 | UCGAAGCAAUAUUACGACCU | -1.51 ± 0.16 | -1.1 ± 0.18
38 | UCGAAGCAAUAUUACGACUC | – | 0.412 ± 0.47
39 | UCGAAGCAAUAUUACGAUAG | -2.95 ± 0.25 | -1.14 ± 0.18
40 | UCGAAGCAAUAUUACGAUGG | -0.763 ± 0.079 | -0.538 ± 0.13
41 | UCGAAGCAAUAUUACGCAAU | – | -2.03 ± 0.27
42 | UCGAAGCAAUAUUACGCGAG | -1.47 ± 0.074 | -0.905 ± 0.1
43 | UCGAAGCAAUAUUACGCGGC | -3.35 ± 0.32 | -2.87 ± 0.36
44 | UCGAAGCAAUAUUACGGAAA | -1.95 ± 0.49 | -0.855 ± 0.25
45 | UCGAAGCAAUAUUACGGUCA | -1.83 ± 0.11 | -0.525 ± 0.12
46 | UCGAAGCAAUAUUACGGUGU | -2.05 ± 0.094 | -1.62 ± 0.15
47 | UCGAAGCAAUAUUACGUAGA | -1.81 ± 0.14 | -0.562 ± 0.15
48 | UCGAAGCAAUAUUACGUCAG | -0.27 ± 0.089 | -0.968 ± 0.12
49 | UCGAAGCAAUAUUACGUCUA | 0.0685 ± 0.078 | 0.296 ± 0.077
50 | UCGAAGCAAUAUUACGUGAG | -0.469 ± 0.053 | -0.72 ± 0.088
51 | UCGAAGCAAUAUUACGUUUU | -3.28 ± 0.14 | -3.09 ± 0.29
52 | UCGCAGCAAUAUUACGACCA | -1.83 ± 0.13 | -1.07 ± 0.14

Row | Sequence | self-splicing fitness (ln) (30 °C) | self-splicing fitness (ln) (37 °C)
53 | UCGCAGCAAUAUUACGACGA | -1.67 ± 0.17 | -0.408 ± 0.14
54 | UCGCAGCAAUAUUACGACUA | 0.0221 ± 0.14 | -0.0509 ± 0.14
55 | UCGCAGCAAUAUUACGAUCG | -0.735 ± 0.092 | -0.359 ± 0.12
56 | UCGCAGCAAUAUUACGCAUG | -3.79 ± 0.33 | -2.56 ± 0.27
57 | UCGCAGCAAUAUUACGCCAU | – | -1.96 ± 0.4
58 | UCGCAGCAAUAUUACGCCGA | -1.83 ± 0.19 | -2.26 ± 0.22
59 | UCGCAGCAAUAUUACGCCUC | – | -2.36 ± 0.39
60 | UCGCAGCAAUAUUACGCGUG | -3.34 ± 0.15 | -1.44 ± 0.14
61 | UCGCAGCAAUAUUACGCUAU | -5.08 ± 0.36 | -3 ± 0.17
62 | UCGCAGCAAUAUUACGGCAG | -0.619 ± 0.1 | -0.379 ± 0.11
63 | UCGCAGCAAUAUUACGGCCG | -0.546 ± 0.12 | -0.522 ± 0.18
64 | UCGCAGCAAUAUUACGGGCG | -2.7 ± 0.13 | -0.856 ± 0.12
65 | UCGCAGCAAUAUUACGGGUG | -1.16 ± 0.053 | -1.03 ± 0.074
66 | UCGCAGCAAUAUUACGGUAA | -0.786 ± 0.061 | -0.563 ± 0.071
67 | UCGCAGCAAUAUUACGGUGA | -4.44 ± 0.46 | -2.45 ± 0.15
68 | UCGCAGCAAUAUUACGGUGU | – | -2.63 ± 0.24
69 | UCGCAGCAAUAUUACGGUUG | -2.75 ± 0.1 | -1.47 ± 0.12
70 | UCGCAGCAAUAUUACGUAAA | -1.69 ± 0.094 | -1.12 ± 0.12
71 | UCGCAGCAAUAUUACGUAAU | -3.39 ± 0.15 | -2.19 ± 0.21
72 | UCGGAGCAAUAUUACGAAGA | – | -2.3 ± 0.42
73 | UCGGAGCAAUAUUACGAAGU | – | -0.529 ± 0.24
74 | UCGGAGCAAUAUUACGACAC | -3.18 ± 0.48 | -1.19 ± 0.3
75 | UCGGAGCAAUAUUACGAGAU | – | -1.51 ± 0.35
76 | UCGGAGCAAUAUUACGAGCC | -2.93 ± 0.41 | –
77 | UCGGAGCAAUAUUACGAGGA | -3.64 ± 0.4 | -0.618 ± 0.21
78 | UCGGAGCAAUAUUACGCGCU | – | -2.3 ± 0.37

Row | Sequence | self-splicing fitness (ln) (30 °C) | self-splicing fitness (ln) (37 °C)
79 | UCGGAGCAAUAUUACGCGGU | -3.14 ± 0.23 | -2.94 ± 0.43
80 | UCGGAGCAAUAUUACGCUUG | -3.64 ± 0.27 | -2.83 ± 0.35
81 | UCGGAGCAAUAUUACGGGAA | – | -2.08 ± 0.4
82 | UCGGAGCAAUAUUACGGGCA | -2.38 ± 0.16 | -0.971 ± 0.13
83 | UCGGAGCAAUAUUACGGUAA | -3.18 ± 0.21 | -1.68 ± 0.23
84 | UCGGAGCAAUAUUACGUCCC | -1.39 ± 0.46 | –
85 | UCGGAGCAAUAUUACGUGAA | -3.41 ± 0.39 | -1.63 ± 0.14
86 | UCGGAGCAAUAUUACGUGGA | -1.28 ± 0.2 | -1.48 ± 0.18
87 | UCGGAGCAAUAUUACGUUUC | – | -2.02 ± 0.43
88 | UCGUAGCAAUAUUACGAACA | -2.55 ± 0.28 | -1.82 ± 0.2
89 | UCGUAGCAAUAUUACGACUU | -2.7 ± 0.22 | -0.781 ± 0.17
90 | UCGUAGCAAUAUUACGAGCA | -0.579 ± 0.3 | -1.13 ± 0.24
91 | UCGUAGCAAUAUUACGAUUU | -3.1 ± 0.25 | -2.4 ± 0.24
92 | UCGUAGCAAUAUUACGCAAC | – | -2.42 ± 0.48
93 | UCGUAGCAAUAUUACGCAAG | -3.91 ± 0.35 | -2.12 ± 0.27
94 | UCGUAGCAAUAUUACGCGCA | -0.601 ± 0.11 | -0.0623 ± 0.15
95 | UCGUAGCAAUAUUACGCUAG | -2.95 ± 0.26 | -2.32 ± 0.29
96 | UCGUAGCAAUAUUACGCUCU | -3.62 ± 0.32 | -0.606 ± 0.18
97 | UCGUAGCAAUAUUACGGACG | -2.58 ± 0.24 | -1.68 ± 0.21
98 | UCGUAGCAAUAUUACGGAGC | -2.59 ± 0.18 | -2.35 ± 0.39
99 | UCGUAGCAAUAUUACGGGUG | -1.66 ± 0.11 | -2.66 ± 0.14
100 | UCGUAGCAAUAUUACGGUAA | -2.67 ± 0.35 | 0.253 ± 0.19
101 | UCGUAGCAAUAUUACGUCCC | -2.74 ± 0.3 | –
102 | UCGUAGCAAUAUUACGUGAA | -2.73 ± 0.16 | -1.8 ± 0.17
